{
  "source": "patent US20200200751A1",
  "about": "(ECS PROGASTRIN, published 2020)",
  "binders": {"B1": {"name": "mAb13 (hybridoma 2C6C3C7) (antibody, V domains shown)", "VH": "EVQLVESGGGLVQPGGSLKLSCAASGFIFSSYGMSWVRQSPDRRLELVASINTFGDRTYYPDSVKGRFTISRDNAKNTLYLQMTSLKSEDTAIYYCARGTGTYWGQGTTLTVSS", "VL": "not shown", "notes": "Murine variable domains (mVH 13 / mVL 13)"}, "B2": {"name": "mAb4 (hybridoma 20D2C3G2) (antibody, V domains shown)", "VH": "QVQLQQSGAELMKPGASVKISCKATGYTFSSSWIEWLKQRPGHGLEWIGEFLPGSGSTDYNEKFKGKATFTADTSSDTAYMLLSSLTSEDSAVYYCATDGNYDWFAYWGQGTLVTVSA", "VL": "DLVMTQTPLSLPVSLGDQASISCRSSQSLVHSSGVTYLHWYLQKPGQSPKLLIYKVSNRFSGVPDRFSGSGSGTDFTLKISRVEAEDLGVYFCSQSTHVPPTFGSGTKLEIK", "notes": "Murine variable domains (mVH 4 / mVL 4)"}, "B3": {"name": "mAb3 (hybridoma 6B51311C10) (antibody, V domains shown)", "VH": "EVQLQQSGTVLARPGASVKMSCKASGYIFTSYWVHWVKQRPGQGLEWIGGFYPGNSDSRYNQKFKGKATLTAVTSASTAYMDLSSLTNEDSAVYFCTRRDSPQYWGQGTTLTVSS", "VL": "DVLMTQTPLSLPVSLGDQASISCRSSQSIVHSNGNTYLEWYLQKPGQSPKLLIYKVSNRFSGVPDRFSGSGSGTDFTLKISRLEAEDLGVYYCFQGSHVPFTFGGGTKLEIK", "notes": "Murine variable domains (mVH 3 / mVL 3) of the hybridoma antibody"}, "B4": {"name": "mAb16 (hybridoma 1E9D9B6) (antibody, V domains shown)", "VH": "QVQLQQSGAELVKPGASVKLSCKASGYTFTSYYMYWVKQRPGQGLEWIGEINPSNGGTNFNEKFKSKATLTVDKSSSTAYMQLSSLTSEDSAVYYCTRGGYYPFDYWGQGTTLTVSS", "VL": "not shown", "notes": "Murine variable domains (mVH 16 / mVL 16)"}},
  "data": [
    {"target": "T1, human progastrin (full length, recombinant, produced in E. coli, tag removed) (human)", "T1 construct": "also called hPG; PG", "T1 chain": "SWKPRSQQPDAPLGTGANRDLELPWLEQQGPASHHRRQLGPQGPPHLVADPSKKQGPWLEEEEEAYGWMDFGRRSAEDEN", "experiment": "epitope mapping (details not given)", "values": [
      {"binder": "B1", "binding result": "binds"},
      {"binder": "B2", "binding result": "binds"},
      {"binder": "B3", "binding result": "binds"},
      {"binder": "B4", "binding result": "binds"}
    ]}
  ]
}
